According to patent publication US20210253688A1 (UCB, published 2021):

B3: human Gremlin-1 (full length; recombinant human Gremlin 1) (ligand)
chain: KKKGSQGAIPPPDKAQHNDSEQTQSPQQPGSRNRGRGQGRGTAMPGEEVLESSQEALHVTERKYLKRDWCKTQPLKQTIHEEGCNSRTIINRFCYGQCNSFYIPRHIRKEEGSFQSCSFCKPKKFTTMMVTLNCPELQPPTKKKRVTRVKQCRCISIDLD

Key:
[1] = molecular target: B3; test: cell-based or functional assay
[2] = molecular target: T1, mouse Gremlin (mouse, UniProt O70326 25-184); test: cell-based or functional assay
T1 sequence (looked up): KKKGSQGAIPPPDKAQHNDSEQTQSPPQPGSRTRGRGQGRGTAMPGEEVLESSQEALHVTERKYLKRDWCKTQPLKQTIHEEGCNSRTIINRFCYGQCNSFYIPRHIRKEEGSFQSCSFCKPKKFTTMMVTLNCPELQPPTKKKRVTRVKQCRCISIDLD

[3] = molecular target: B3; test: SPR, Biacore T200, 25 °C; mIgG captured on anti-mouse Fc, recombinant human Gremlin 1 titrated from 5 nM; average of 5 determinations
Description: The affinity of anti-Gremlin mIgG for human Gremlin 1 was determined by biamolecular interaction analysis using surface plasmon resonance (SPR) technology on a Biacore T200 system, GE Healthcare Bio-Sciences AB. Anti-Gremlin mIgG was captured by an immobilised anti-mouse Fc surface and Gremlin 1 was titrated over the captured mIgG. The capture ligand (affinipure F(ab′)₂ fragment of goat anti-mouse IgG, Fc fragment specific, 115-006-071, Jackson ImmunoResearch Inc.) was immobilised at 50 μg/ml in 10 mM NaAc, pH 5.0 on flow cell 2 of a CM4 Sensor Chip via amine coupling chemistry, using 600 s activation and deactivation injections, to a level of ˜1600 response units (RU). HBS-EP+ buffer (0.01 M HEPES pH 7.4, 0.15 M NaCl, 3 mM EDTA, 0.05% Surfactant P20) was used as the running buffer with a flow rate of 10 μ1/min. A reference surface was prepared on flow cell 1 by activating and deactivating the surface as for flow cell 2 but omitting the capture ligand.
The assay buffer was HBS-EP+ plus an extra 150 mM NaCl to give a final NaCl concentration of 300 mM plus 1% CMD40. A 60 s injection of anti-Gremlin mIgG (at 5 μg/ml in running buffer) was passed over flow cells 1 and 2 to give a capture level of approximately 100 RU on the immobilised anti-mouse IgG, Fc surface. […]
The kinetic data was determined using Biacore T200 evaluation software.

[4] = molecular target: T2, BMP4/7 heterodimer (human, UniProt P12644 293-408; P18075 293-431); test: cell-based or functional assay
T2 sequence (looked up) 1: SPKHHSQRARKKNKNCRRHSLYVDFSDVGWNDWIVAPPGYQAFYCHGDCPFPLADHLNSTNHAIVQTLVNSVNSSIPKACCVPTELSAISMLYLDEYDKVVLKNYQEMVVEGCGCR
T2 sequence (looked up) 2: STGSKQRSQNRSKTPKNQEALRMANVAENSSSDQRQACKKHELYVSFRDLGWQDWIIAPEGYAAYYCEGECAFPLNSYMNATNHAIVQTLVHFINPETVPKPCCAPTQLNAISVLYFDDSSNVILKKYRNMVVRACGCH

B1: Ab7326 (format in the assay not stated) (antibody, V domains shown)
VH: QVQLVESGAEVKKPGATVKISCKVSGYTFTDYYMHWVQQAPGKGLEWMGLVDPEDGETIYAEKFQGRVTITADTSTDTAYMELSSLRSEDTAVYYCATDARGSGSYYPNHFDYWGQGTLVTVSS
VL: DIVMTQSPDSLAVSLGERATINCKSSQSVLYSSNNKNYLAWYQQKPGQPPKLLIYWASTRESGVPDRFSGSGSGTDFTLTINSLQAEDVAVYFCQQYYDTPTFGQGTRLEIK
- IC50, Hek-Id1 reporter gene assay, restoration of BMP signalling [1]: 1.3 nM
- IC50, Hek-Id1 reporter gene assay, restoration of BMP signalling [2]: 0.2 nM

B2: Ab7326 mouse full length IgG1 (antibody, V domains shown)
VH: QVQLVESGAEVKKPGATVKISCKVSGYTFTDYYMHWVQQAPGKGLEWMGLVDPEDGETIYAEKFQGRVTITADTSTDTAYMELSSLRSEDTAVYYCATDARGSGSYYPNHFDYWGQGTLVTVSS
VL: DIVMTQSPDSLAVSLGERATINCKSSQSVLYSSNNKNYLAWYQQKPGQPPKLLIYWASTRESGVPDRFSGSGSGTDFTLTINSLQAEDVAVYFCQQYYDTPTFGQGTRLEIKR
notes: also called anti-Gremlin mIgG; UCB Ab7326 mouse IgG1
- Kd [3]: < 0.1 nM

Binder: B3
- IC50, Hek-Id1 reporter gene assay, geometric mean (N=2) [4]: 1.6 nM

B4: truncated human Gremlin-1 (E. coli expressed, refolded, N-terminal 6His-TEV tag) (ligand)
chain: MGSSHHHHHHSSGENLYFQGSAMPGEEVLESSQEALHVTERKYLKRDWCKTQPLKQTIHEEGCNSRTIINRFCYGQCNSFYIPRHIRKEEGSFQSCSFCKPKKFTTMMVTLNCPELQPPTKKKRVTRVKQCRCISIDLD
- IC50, Hek-Id1 reporter gene assay, geometric mean (N=2) [4]: 1.7 nM
